The values that follow come from publication PMC2241622, “Aminopeptidase B, a glucagon-processing enzyme: site directed mutagenesis of the Zn^2+-binding motif and molecular modelling” (BMC Biochemistry, 2007).

Read-outs that look alike come from different tables or passages of the source.

For data set [1], the target named is T1, Aminopeptidase B (His-rAp-B) (Rattus norvegicus, UniProt O09175).
T1 construct: gene Rnpep; His-tagged full-length rat Ap-B (673 residues incl. His-tag/Factor Xa site; 650-residue Ap-B) from E. coli
T1 sequence (O09175 1-650): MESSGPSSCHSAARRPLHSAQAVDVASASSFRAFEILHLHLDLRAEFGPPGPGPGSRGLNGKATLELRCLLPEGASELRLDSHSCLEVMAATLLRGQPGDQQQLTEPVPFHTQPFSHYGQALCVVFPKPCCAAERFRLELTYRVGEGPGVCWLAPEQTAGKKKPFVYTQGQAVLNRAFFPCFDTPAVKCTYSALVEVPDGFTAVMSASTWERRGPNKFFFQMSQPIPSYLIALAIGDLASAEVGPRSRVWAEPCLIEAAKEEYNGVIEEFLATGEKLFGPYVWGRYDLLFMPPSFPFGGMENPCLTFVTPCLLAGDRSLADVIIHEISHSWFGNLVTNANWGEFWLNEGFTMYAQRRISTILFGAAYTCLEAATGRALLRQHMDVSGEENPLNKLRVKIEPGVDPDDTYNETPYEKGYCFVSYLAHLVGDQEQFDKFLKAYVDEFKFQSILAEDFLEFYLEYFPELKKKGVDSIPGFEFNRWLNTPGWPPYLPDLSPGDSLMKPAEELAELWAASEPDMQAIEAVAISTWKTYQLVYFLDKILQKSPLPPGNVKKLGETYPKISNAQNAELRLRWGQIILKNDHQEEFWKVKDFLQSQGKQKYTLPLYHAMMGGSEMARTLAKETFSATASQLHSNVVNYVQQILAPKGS
The data set is described as follows: L-Arg-β-NA hydrolysis assay with recombinant enzyme; Ki and percent inhibition ([…] at […]). It is filed as biochemical.

In data set [2] the target is T1, Aminopeptidase B (His-rAp-B). The data set is described as above. It is filed as biochemical. The source holds these as a separate data set.
Data set [3] shares this target. The data set is described as above. It is filed as biochemical. This is another data set of the same source.
Substrate in data set [4]: N=C(N)NCCC[C@H](N)C(=O)Nc1ccc2ccccc2c1
The experiment in a line: purified protein. The data set is classed as biochemical, Rattus norvegicus. The settings on record: Zn2+.

Substrate in data set [5]: NCCCC[C@H](N)C(=O)Nc1ccc2ccccc2c1
The data set is described as follows: purified protein. The data set is classed as biochemical, Rattus norvegicus. The settings on record: Zn2+.

One may read the Ki as the dissociation constant of the complex between target and ligand, obtained from inhibition or displacement. For `NC(N)=NCCC[C@H](N)C(=O)C[C@@H](Cc1ccccc1)C(=O)O` [Arphamenine A], the Ki in data set [1] came to 20 nM.
With `CC(C)C[C@H](NC(=O)[C@@H](O)[C@H](N)Cc1ccccc1)C(=O)O` [Bestatin], the Ki in data set [2] worked out at 50 nM.
In the case of `N=C(N)NCCC[C@H](N)C(=O)C[C@@H](Cc1ccc(O)cc1)C(=O)O` [Arphamenine B], in data set [3], the Ki was found to be 20 nM.

B1: Aminopeptidase B (His-rAp-B) (Rattus norvegicus) (protein)
chain: T1 sequence (O09175 1-650)
notes: His-tagged full-length rat Ap-B (673 residues incl. His-tag/Factor Xa site; 650-residue Ap-B) from E. coli, Ni-NTA purified
Broadly, the Km is the substrate concentration at which the rate is half of its maximum. As usually defined, the Vmax is the top rate of the reaction or transport when substrate is in excess. Usually kcat stands for the maximal rate divided by the concentration of active sites. In general, kcat/Km refers to the second-order rate constant that governs catalysis at low substrate concentration. Turning to B1, in “purified protein [4]”, the Km was 108 ± 13 µM, the Vmax was found to be 8.76 µM/min, the turnover number (kcat) stood at 20 ± 3 s⁻¹ and the kcat/Km was 185000 M⁻¹ s⁻¹. Further, in the data set “purified protein [5]”, the Km came out at 135 ± 30 µM, the Vmax is 3.9 µM/min, the kcat was determined as 3 ± 0.35 s⁻¹ and the kcat/Km stood at 22000 ± 2000 M⁻¹ s⁻¹.
